# Test results published in patent US20150073033A1 (University of Texas, published 2015).
# How the values were obtained:
# [1] = target: T1, endogenous IKKβ (U87/EGFR or U251 cells) (human, UniProt O14920 1-756); assay: IP of PKCζ, anti-IKKβ immunoblot, EGF-treated cells
# T1 sequence (looked up): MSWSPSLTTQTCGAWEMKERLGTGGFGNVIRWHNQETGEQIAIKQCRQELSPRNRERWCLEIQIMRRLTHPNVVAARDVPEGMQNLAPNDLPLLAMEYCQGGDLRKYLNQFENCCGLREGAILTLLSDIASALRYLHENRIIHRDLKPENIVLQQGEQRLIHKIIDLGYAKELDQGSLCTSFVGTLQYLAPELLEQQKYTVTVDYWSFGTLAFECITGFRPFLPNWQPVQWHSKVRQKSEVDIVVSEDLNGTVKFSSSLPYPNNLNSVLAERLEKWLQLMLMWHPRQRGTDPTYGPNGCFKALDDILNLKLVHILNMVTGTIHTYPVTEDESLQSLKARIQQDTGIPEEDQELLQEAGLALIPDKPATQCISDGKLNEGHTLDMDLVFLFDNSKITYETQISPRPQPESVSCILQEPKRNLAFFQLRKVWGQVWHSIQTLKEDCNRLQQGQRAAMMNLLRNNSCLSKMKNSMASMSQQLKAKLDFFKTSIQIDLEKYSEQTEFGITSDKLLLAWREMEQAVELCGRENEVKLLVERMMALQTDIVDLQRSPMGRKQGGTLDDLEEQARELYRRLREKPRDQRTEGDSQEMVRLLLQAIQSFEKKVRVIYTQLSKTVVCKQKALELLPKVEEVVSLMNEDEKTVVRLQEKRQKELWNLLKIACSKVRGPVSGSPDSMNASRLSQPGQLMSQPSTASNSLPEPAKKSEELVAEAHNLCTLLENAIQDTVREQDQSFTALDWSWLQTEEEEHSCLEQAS
# [2] = target: T2, purified recombinant GST-Bub1 (UniProt O43683 1-1085, limits assumed); assay: GST pull-down, purified recombinant proteins
# T2 construct: Bacterially purified; not shown: GST
# T2 sequence (O43683 whole entry): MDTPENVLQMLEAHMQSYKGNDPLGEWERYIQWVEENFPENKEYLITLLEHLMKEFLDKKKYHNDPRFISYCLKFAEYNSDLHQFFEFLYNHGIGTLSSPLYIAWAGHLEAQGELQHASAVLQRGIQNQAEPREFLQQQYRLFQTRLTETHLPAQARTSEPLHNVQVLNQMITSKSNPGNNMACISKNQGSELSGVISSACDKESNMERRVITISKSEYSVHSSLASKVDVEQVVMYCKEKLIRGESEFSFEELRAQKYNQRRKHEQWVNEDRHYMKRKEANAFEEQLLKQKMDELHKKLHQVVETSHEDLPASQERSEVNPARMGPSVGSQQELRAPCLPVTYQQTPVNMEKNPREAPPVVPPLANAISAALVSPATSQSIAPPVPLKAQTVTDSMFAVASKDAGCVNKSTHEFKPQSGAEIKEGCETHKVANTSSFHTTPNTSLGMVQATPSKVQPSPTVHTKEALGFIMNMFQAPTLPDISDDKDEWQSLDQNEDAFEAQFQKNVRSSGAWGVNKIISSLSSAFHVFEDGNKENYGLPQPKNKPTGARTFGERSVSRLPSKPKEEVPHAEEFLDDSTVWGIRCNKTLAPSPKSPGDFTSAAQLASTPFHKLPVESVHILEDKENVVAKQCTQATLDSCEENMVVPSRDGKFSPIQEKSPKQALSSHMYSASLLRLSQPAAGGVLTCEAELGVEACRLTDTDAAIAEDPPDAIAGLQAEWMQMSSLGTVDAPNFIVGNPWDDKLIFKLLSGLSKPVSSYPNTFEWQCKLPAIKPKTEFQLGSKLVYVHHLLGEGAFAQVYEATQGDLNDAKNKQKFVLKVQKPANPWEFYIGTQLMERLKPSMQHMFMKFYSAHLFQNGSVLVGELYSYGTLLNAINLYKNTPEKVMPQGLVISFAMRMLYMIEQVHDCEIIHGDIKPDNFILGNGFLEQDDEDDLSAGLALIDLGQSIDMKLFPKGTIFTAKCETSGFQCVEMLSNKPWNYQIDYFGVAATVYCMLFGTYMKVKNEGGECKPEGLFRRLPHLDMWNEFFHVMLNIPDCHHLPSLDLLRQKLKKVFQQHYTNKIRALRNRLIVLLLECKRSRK
# Procedure: Nuclei were stained with DAPI (blue). […] A GST pull-down assay was performed.
# [3] = target: endogenous Bub1 (human, UniProt O43683 1-1085); assay: co-IP, HeLa cells
# Chain of endogenous Bub1 (O43683 whole entry): as above
binder,measurement,setting,value
"endogenous PKCζ (enzyme, human, UniProt Q05513 1-592, looked up) MPSRTGPKMEGSGGRVRLKAHYGGDIFITSVDAATTFEELCEEVRDMCRLHQQHPLTLKWVDSEGDPCTVSSQMELEEAFRLARQCRDEGLIIHVFPSTPEQPGLPCPGEDKSIYRRGARRWRKLYRANGHLFQAKRFNRRAYCGQCSERIWGLARQGYRCINCKLLVHKRCHGLVPLTCRKHMDSVMPSQEPPVDDKNEDADLPSEETDGIAYISSSRKHDSIKDDSEDLKPVIDGMDGIKISQGLGLQDFDLIRVIGRGSYAKVLLVRLKKNDQIYAMKVVKKELVHDDEDIDWVQTEKHVFEQASSNPFLVGLHSCFQTTSRLFLVIEYVNGGDLMFHMQRQRKLPEEHARFYAAEICIALNFLHERGIIYRDLKLDNVLLDADGHIKLTDYGMCKEGLGPGDTTSTFCGTPNYIAPEILRGEEYGFSVDWWALGVLMFEMMAGRSPFDIITDNPDMNTEDYLFQVILEKPIRIPRFLSVKASHVLKGFLNKDPKERLGCRPQTGFSDIKSHAFFRSIDWDLLEKKQALPPFQPQITDDYGLDNFDTQFTSEPVQLTPDDEDAIKRIDQSEFEGFEYINPLLLSTEESV",binding result,[1],no binding
"purified recombinant His-PKM2 (wild type) (enzyme, Expressed in bacteria and purified; unphosphorylated; also called WT PKM2; WT His-PKM2) not shown",binding result,[2],no binding
"endogenous PKM1 (enzyme, Looked for in Bub3-Bub1 immunoprecipitates) not shown",binding result,[3],no binding
